Like-named read-outs stand apart in the source and are kept apart here.
What was measured:
transducin α (Tα*) = transducin α (Tα*) (Bos taurus, UniProt P04695); test: PDE activation assay fit (membranes)
transducin α (Tα-S*) = transducin α (Tα-S*) (Bos taurus, UniProt P04695); test: PDE activation assay fit (solution)
[1] = molecular target: T1, PDE catalytic subunit (PDEcat) (Bos taurus, UniProt P11541); test: PDE activity assay (membranes)
T1 chain 1: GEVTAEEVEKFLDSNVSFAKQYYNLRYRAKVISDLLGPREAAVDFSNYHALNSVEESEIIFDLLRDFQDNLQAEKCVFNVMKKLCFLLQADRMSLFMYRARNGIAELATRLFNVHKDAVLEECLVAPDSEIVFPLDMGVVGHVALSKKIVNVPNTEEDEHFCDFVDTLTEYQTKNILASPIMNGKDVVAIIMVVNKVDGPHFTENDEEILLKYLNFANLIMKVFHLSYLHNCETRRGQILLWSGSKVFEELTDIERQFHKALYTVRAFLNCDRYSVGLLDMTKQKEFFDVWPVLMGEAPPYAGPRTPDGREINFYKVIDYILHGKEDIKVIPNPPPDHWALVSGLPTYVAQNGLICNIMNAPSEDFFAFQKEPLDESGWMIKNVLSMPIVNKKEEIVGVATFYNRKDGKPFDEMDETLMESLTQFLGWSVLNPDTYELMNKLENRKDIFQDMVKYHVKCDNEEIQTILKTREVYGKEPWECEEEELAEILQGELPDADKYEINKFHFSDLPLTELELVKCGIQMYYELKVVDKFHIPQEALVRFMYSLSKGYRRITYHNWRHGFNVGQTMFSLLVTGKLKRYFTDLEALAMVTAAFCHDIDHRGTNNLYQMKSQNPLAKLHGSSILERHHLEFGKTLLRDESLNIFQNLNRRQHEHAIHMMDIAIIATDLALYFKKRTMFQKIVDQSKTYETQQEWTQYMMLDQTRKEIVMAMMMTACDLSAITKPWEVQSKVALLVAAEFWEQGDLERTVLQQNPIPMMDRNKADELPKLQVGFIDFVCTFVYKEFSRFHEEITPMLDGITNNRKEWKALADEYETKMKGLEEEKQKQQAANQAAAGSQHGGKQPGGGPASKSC
T1 chain 2: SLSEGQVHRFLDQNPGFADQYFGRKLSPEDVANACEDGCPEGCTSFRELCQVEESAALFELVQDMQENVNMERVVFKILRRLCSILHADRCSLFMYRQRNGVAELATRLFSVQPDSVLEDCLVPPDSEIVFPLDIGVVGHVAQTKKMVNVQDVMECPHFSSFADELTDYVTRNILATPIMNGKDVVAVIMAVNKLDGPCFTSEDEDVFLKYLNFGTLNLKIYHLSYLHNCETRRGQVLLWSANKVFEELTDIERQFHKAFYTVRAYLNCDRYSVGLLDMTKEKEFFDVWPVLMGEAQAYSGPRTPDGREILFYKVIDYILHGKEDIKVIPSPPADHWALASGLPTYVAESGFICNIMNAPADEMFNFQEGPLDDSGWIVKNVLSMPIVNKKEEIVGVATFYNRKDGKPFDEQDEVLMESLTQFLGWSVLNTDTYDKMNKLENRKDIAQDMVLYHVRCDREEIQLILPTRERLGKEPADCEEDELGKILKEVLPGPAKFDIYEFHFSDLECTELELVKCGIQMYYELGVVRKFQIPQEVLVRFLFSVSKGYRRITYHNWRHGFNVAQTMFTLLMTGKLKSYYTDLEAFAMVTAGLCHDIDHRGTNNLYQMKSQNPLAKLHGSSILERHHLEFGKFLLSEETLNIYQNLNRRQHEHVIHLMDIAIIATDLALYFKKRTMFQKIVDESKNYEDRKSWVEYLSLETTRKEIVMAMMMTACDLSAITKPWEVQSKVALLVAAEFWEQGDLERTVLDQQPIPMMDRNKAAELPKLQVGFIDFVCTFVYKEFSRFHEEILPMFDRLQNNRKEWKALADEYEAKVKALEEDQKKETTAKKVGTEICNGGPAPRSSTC

[2] = molecular target: T1, PDE catalytic subunit (PDEcat)

Chain of transducin α (Tα*) (P04695 2-350): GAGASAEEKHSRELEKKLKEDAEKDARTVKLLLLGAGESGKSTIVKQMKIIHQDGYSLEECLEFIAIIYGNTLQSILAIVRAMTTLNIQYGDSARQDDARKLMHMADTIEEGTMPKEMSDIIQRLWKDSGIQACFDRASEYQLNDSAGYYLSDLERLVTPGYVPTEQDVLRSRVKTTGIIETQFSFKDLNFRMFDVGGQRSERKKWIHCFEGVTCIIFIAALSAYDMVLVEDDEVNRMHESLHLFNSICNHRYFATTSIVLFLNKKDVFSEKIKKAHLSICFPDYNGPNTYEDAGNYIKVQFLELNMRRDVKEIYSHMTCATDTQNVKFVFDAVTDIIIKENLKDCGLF
Chain of transducin α (Tα-S*) (P04695 2-350): as above

B1: PDEγ (protein)
chain: MNLEPPKAEIRSATRVMGGPVTPRKGPPKFKQRQTRQFKSKPPKKGVQGFGDDIPGMEGLGTDITVICPWEAFNHLELHELAQYGII
modifications: activated Tα, membranes
Kd (transducin α (Tα*)): 0.0565 nM

B2: PDEγ (protein)
chain: B1 chain
modifications: GTPγS-bound Tα
Kd (transducin α (Tα-S*)): 4.5 nM

B3: PDEγ (protein)
chain: B1 chain
modifications: membranes
Kd [1]: 0.055 nM

B4: PDEγ (protein)
chain: B1 chain
Kd [2]: 0.005 nM

From article PMC6510727 (2019)
